Source: the DeepSol protein solubility set

Assay: soluble on expression in E. coli; label from the status in PepcDB or PDB records
For “GPGSMPSGVTHSLSLSSLPVVSLLPRWHKAEVVSHRQLTPTATSAQERAKRGKTSVLAAANTAAMTATESKGFAELYHQLLQDGVQLQKELEAYYLRQEGYIRKRVAVLDEMQENIADERRCLELQHQECRAQISTTRKQAASFLSDERKVSQAVRHAQPFLAAQEAEIDKRLDELQREKEREDTALLNVMARQEALGKQEALLACRERQRFLEEQDLQKALIEMRSLNREMEERRKSLLRKHGTVADWDRKLESRERELLVCQDQLRENLKALEQEENALGIHPAQRTAVAPAVSQRTVMDDHDMSIEHDSACEEIDYED”, the “soluble on expression in E. coli” value was “not soluble”.
For “MGSDKIHHHHHHMLVELKKPKLKDGKDQLRSYCNATGSPIAVWTNGDQISYYQRKDPNYFEDIPGLPNANQTLADILQIKFTLEDLIANDKLVKENKSLKTLIEEMEDDVLANAGVDVFEELFKLIFTKLYDEWYSGQGNRRSTRSLEFRNTGQTEAALKTKIQDLFDKAKKKWEGVFSEDAKISLTPSHLSVCVSSLENVKLFNSNLDVIDEAFEYLINQSSKGEKGQFFTPRYVIDLCVKMLNPQEDEYMIDTAAGSSGFPVHTIFHVWRQILDDEGLSASHLFSLEDKPPRCKEYVEDKVFAIDFDEKAVRVARTLNLIAGDGQTNVLHLNTLDYELWDEVTEQDDWDDIYHEGFKRLKRLRPKNSKDYREFQFDVLMANPPFAGDIKEPDTVGECNTYLYLKVLCKLKPSICRCSF”, the “soluble on expression in E. coli” value was “not soluble”.
With “SLFQNFINKFVGEKQMDLIKDCNTFLAFVTDKEQTKKKLYKNNMCKNRFCPMCAWRRARKDALGLSLMMQYIKQEEKKEFIFLTLTTPNVKAEELEDEIKKYNLSFGKLVKRKNVKAMMKGYVRKLEITYNKQRDDFNPHFHVLIAVNKSYFKDSKVYISQKEWLEMWRDVTGMPEITQVHVQKIKQNNNKELYEMAKYSGKDSDYLINQKIFDAYYKSLKGKQILVYSGLFKEARKKLKNGELDYLKEIDPTEYLYQIYYIWNQKEYLASELHELTEEEKRKINHQTINEIEEEK” the “soluble on expression in E. coli” value was “soluble”.
For “MSLSELIKRLITAMTLCLTALLVHAQEWTKEDSLRLRKLLDSDQELNLNQDAVRQIDFGSAVGTPRMSVEKKWMLPDESLPEALPKPKVVLSLMPYKANTPYNWDPVFQKKIRMDKNTWRGDPHYEMRHQRSYSNWAHNPMAGGVRKSLEEIRASGVRFRQLSERANGMMVNSVVMDSPIPLFGGSGVYINGGTIGGLDLMAVFTKNFWDKKGKERRERTLEVLRTYGDSTTVLINRPIEQIAREGHHHHHH”, the “soluble on expression in E. coli” value was “not soluble”.
With “MYGVLVWPPEDLRRFMEELQAARGVRGFGPPHLNLRQPFDWPYEEEALRIALAGILRGHPPFRVRLGDWRFFPQGVVYLRAYGGGAFRRLYHALEPLAPPLKEIEGPSYIPHLTLALGLSPEEAKALAQSLPPPPRRSFLVREAALVRDEGEGLVEVARFPLGPSPER” the “soluble on expression in E. coli” value was “soluble”.
For “MKTLEAIKKELGEYEGKNIKIMEVCGTHTSSIFKNGIRSLISPRIQLISGPGCPVCVTASSYIDRLVEYSLKDNHCVLTFGDMMKVKGHKLSLTEAKATGGNVKILYSPLSAVKIAIKSPETQFIFAAVGFETTAPIYALMIEEIIKNNIKNLKLMTSIKTIIPAISYICENEKNIDAFLCPGHVSVIIGSSVYTDMALKYRKPFVIGGFEGGHIIAAIYEIIRQISNNEYSMKNMYQSAVSPEGNQKAKSLIDKYFEAADDYWRGIGIIKNSGLRLRTEYRDFDAGSTIFEDADAAPSGCKCADVILGRITPAQCPLFGKACTPLNAVGACMVSSEGACGIWYRNCEV”, the “soluble on expression in E. coli” value was “soluble”.
For “NGAQAFVSAQTSTIPKTAFTAHDFVDYTLPQEQKGKEQKEQQWMKNSQTKDTDVHPYADFAVLEILLFPDSSTDRKIFNHFIQPAIRAYKQLGDSLNIFANQTLDQPKHNRYYLLGYPFLRNKAASLFLNQTEQR”, the “soluble on expression in E. coli” value was “soluble”.
In the case of “MGSSHHHHHHSSGLVPRGSHMSVPLYGFTSICGRRPEMEDAVSTIPRFLQSSSGSMLDGRFDPQSAAHFFGVYDGHGGSQVANYCRERMHLALAEEIAKEKPMLCDGDTWLEKWKKALFNSFLRVDSEIESVAPETVGSTSVVAVVFPSHIFVANCGDSRAVLCRGKTALPLSVDHKPDREDEAARIEAAGGKVIQWNGARVFGVLAMSRSIGDRYLKPSIIPDPEVTAVKRVKEDDCLILASDGVWDVMTDEEACEMARKRILLWHKKNAVAGDASLLADERRKEGKDPAAMSAAEYLSKLAIQRGSKDNISVVVVDLKPRRKLK”, the “soluble on expression in E. coli” value is reported as “soluble”.
In the case of “MGSDKIHHHHHHMEKIIVNGRKNGQKIEIACSNLVMGAGDFLRADNMDFAGPVLDQYFEMGGNIFDTARHYRHSEKAIGAWMNMRGNRDSVIIQTKGGHPVREASDVPRVTPEAIHEDISVSLDTLQTDHVELFALHRDNPDVEVGSIMEAMHKEVEAGRVYAIGLSNWELSRIIEANEYAVNHGLTPLSFNSPNFSLAKVNRPRWENCVSANEEMIRWHEATNLPLFSWSSQAGGFFSGRFSEEDTSDTEMVEVYYSEANWERYSRAKQLANQKGCTPIQISLAYVLTQSFPTAAVIGPENTTELQSSVAAAGIKLTASEVDWLDLKA”, the “soluble on expression in E. coli” value is reported as “not soluble”.
With “MSLKIFEFVPPTDKEIEEAQLKLGFKFSPEYIEFIKSGYDLGDAPIEALEISNPPSHADIFETLANARKYFQMPSEMCPICEDNSDYYCLNQKGEVVFWSHNGTTSEKWANVTVWRNQMATEVEGHHHHHH” the “soluble on expression in E. coli” value was “soluble”.
In the case of “MAHHHHHHMLSHSSQLCSLWIESARVIRLDHCRCPGRLVSTGLGVSSEIRKTNLNGKSYTLDPVEMEPVFGVNRASDFSEKGGLCSTNETNEKNVLLSGGDIVSRNQKEVDKVERVALVAEKEHEEEEPLARNLHNTIGPTPYRVSWYDYGSVSPSKRFTYWAYRRLKELPTDWQEYYRRMLYQEISAARYVNQTWDCFMMVVDGYRKAKWILKKYGISIDESLIPKPYNNFWEETTHEERVWAHRRSHQMKELQALYRDEDELVFGAHTMDRREVSHGSIKNVQTGMQGGTPVHALDLPAPCESEIKTSPQIEDMSSALMSSIEDDKLWNPVLRSRIHTRRSREEVELYSFEDDEEDENSPS”, the “soluble on expression in E. coli” value is reported as “soluble”.
For “MGSDKIHHHHHHCDSGSDAVSYGVGTLSLGLSANPSFSTKTRSVNEAEYKKADNYQVTVKDADGASLYNGLYKDMPLSIDLTAGKGYTVKAFYGENVNAGFDKLYVEGSQEFTVSEGEQKNVILYCKPANVKVSVVYTEDFLKYYSDCTVSLSTSHLTAPFEVNMKKDSGKDAYLKANADGEKVSITVGGFRDKEGNEVVMEALVAEKKVAPKTHLTITVDPEVITISTGTASLDVTVDTGTEDKDVNIEIPEEYWPGNASK”, the “soluble on expression in E. coli” value was “not soluble”.
With “MTYLVTGATGGLGGYALNYLKELVPMSDIYALVRSKEKGADLKAAGFNIRVGDYSDAESMKQAFAGIDRVLFVSGAPGNRQVEHENVINAAKKAGVSYIAYTSFAGADKSTSALAEDHFFTEKVIEKSGIAHTFLRNNWYFENEMPMIGGALSAGKFVYAAENGKVGWALKREYAEVAAKAVAGAGFPEILELSGPLMTYEELTKALKEATGKDFDVISSDDKGFVENLVSVGLPQPVAEMFLSFQHDIKNDQLDVTSDDFEKALGKPLTNRVDALRELLKLEHHHHHH” the “soluble on expression in E. coli” value was “soluble”.
In the case of “MDLSTGVPVSIQLKTIVQQGNEQKDFFFDLEGQLVKMGDTLYIRYKEELLEDTEPTPVTIKIEPDGHVQLIRAGELRMRLRFGYQEKLDTSYRTPYGLLQISTFTHNLRVSLKDQPMSGKILVDYDLYSQTERIGEYHLELEFTA”, the “soluble on expression in E. coli” value is reported as “not soluble”.
In the case of “MGSDKIHHHHHHMTDSTTLYPVFAEELLPGGGHRSFILKRGELLRLTDLNGNANVSLTLLNAHEKTERLNLPDSLKCQHTAKLSNGHCLYSDMGRVLAAIVTDTCGWSDSIGGVLNAQEVAEKYGQGRYQELRNGFFRNGVDNLLVELGKWGLGLSDLLMTLNLFSRVDVSETGTLHFAPNNSKAGDYIELYAPMDTLVVLTALQHPMDPNPDYVPQPLTLSWMKADASVAEHCRTSRPENERGFINTDRLFA”, the “soluble on expression in E. coli” value is reported as “not soluble”.
With “MSLTLPDFRLIRLLPLASLVLTACTLPGHKGPGKSPDSPQWRQHQQEVRHLNQYQTRGAFAYISDDQKVYARFFWQQTGQDRYRLLLTNPLGSTELELNAQPGNVQLVDNKGQRYTADDAEEMIGKLTGMPIPLNSLRQWILGLPGDATDYKLDDQYRLSEVNYRQDGKNWKVVYGGYDSKTQPAMPANMELSDGSQRIKLKMDNWIVKEGGSHHHHHH” the “soluble on expression in E. coli” value was “soluble”.
In the case of “MSLSIQSGEILETVKMVADQNFDVRTITIGIDLHDCISSDINVLNQNIYNKITTVGKDLVTTAKYLSAKYGVPIVNQRISVTPIAQIAAATHADSYVSVAQTLDKAAKAIGVSFIGGFSALVQKGMSPSDEVLIRSIPEAMKTTDIVCSSINIGSTRAGINMDAVKLAGETVKRTAEITPEGFGCAKIVVFCNAVEDNPFMAGAFHGSGEADAVINVGVSGPGVVKAALENSDATTLTEVAEVVKKTAFKITRVGELIGREASKMLNIPFGILDLSLAPTPAVGDSVARILEEMGLSVCGTHGTTAALALLNDAVKKGGMMASSAVGGLSGAFIPVSEDEGMIAAAEAGVLTLDKLEAMTAVCSVGLDMIAVPGDTPAHTISGIIADEAAIGMINSKTTAVRIIPVTGKTVGDSVEFGGLLGYAPVMPVKEGSCEVFVNRGGRIPAPVQSMKNEGHHHHHH”, the “soluble on expression in E. coli” value is reported as “soluble”.
In the case of “ATDKRLLGNTAIIGQSGSGKTVLLGFLLAQAQKFKPTTVVFDKDRGMEIAIRAMGGRYLTFKPGRQSGFNPFQLPPTQDNLTFLKQFVKKLAEASSEITHRDEEEINQAVMSIMSSNINPSLRRLSFLLQFLPNPHLNDYNSHPSVHTRLIKWCEGGDYGWLFDNPTDALDLSTHQIYGFDITEFLDNPETRTPVMMYLLYRTEGMISGQRFMYIFDEFWKPLQDPYFEDLAKNKQKTIRKQNGIFVFATQEPTDALESNIAKTLIQQCATYIFLA”, the “soluble on expression in E. coli” value is reported as “not soluble”.
For “MNNSAFTFQTLHPDTIMDALFKQGIRVDSGLTPLNSYENRVYQFQDEERRRFVVKFYRPERWTADQILEEHQFALQLVNDEVPVAAPVAFNGQTLLNHQGFYFAVFPSVGGRQFEADNIDQMEAVGRYLGRMHQTGRKQLFIHRPTIGLNEYLIEPRKLFEDATLIPSGLKAAFLKATDELIAAVTAHWREDFTVLRLHGDCHAGNILWRDGPMFVDLDDARNGPAIQDLWMLLNGDKAQQRMQLETIIEAYEEFSEFDTAEIGLIEPLRAMRLVYYLAWLMRHWADPAFPKNFPWLTGEDYWLRQTATFIEQAKVLQEPPLQLTPMY”, the “soluble on expression in E. coli” value was “not soluble”.
For “MSNTLNHTSSRQIVRHYTHSQKRCKHLMQYFVSANGLFELKVKIYAFLFSMILEGKCRSVSIIADISCFFLFHFHAIRNAFYSIHPTYRAEGENERLTLLLIAQGYALSL”, the “soluble on expression in E. coli” value was “not soluble”.
For “MSLDVLGHVFEYFLGEFALAEGKQGGQFYTPKCVVELLVTMLEPYKGRVFDPCCGSGGMFVQSEEFVKSHQGRLDDISIYGQESNQTTYKLAKMNLAIRKIESSQVIWNNEGSFLNDAHKDLKADFIIANPPFNDSDWSGELLENDGRWKYGVPPASNANYAWIQHFLYHLSPNGGVAGFVLAKGALTSNTTNEAAIRKALIEDDLIDCIVNLPAKLFLNTGIPASLWFIRRQKLPKTVKKTLFIDARDLGTRINRRNKTLNKDDINQIANIYKAWKNGTDYEDIKGFCKSVSIDEIRELSYVLTPGRYVGLADSDDEFDFDTRFNELLAKLKSQIKTEQELSEIILKNLEKIKEGHHHHHH”, the “soluble on expression in E. coli” value was “not soluble”.
With “MRIVTAAVMASTLAVSSLSHAAEVGSGDNWHPGEELTQRSTQSHMFDGISLTEHQRQQMRDLMQQARHEQPPVNVSELETMHRLVTAENFDENAVRAQAEKMANEQIARQVEMAKVRNQMYRLLTPEQQAVLNEKHQQRMEQLRDVTQWQKSSSLKLLSSSNSRSQLEHHHHHH” the “soluble on expression in E. coli” value was “soluble”.
